Measurements as given in US20210261668A1 (DRAGONFLY THERAPEUTICS, published 2021).
Numbering of substitutions follows the chain as printed.

Assays:
Experiment in all cases: ELISA on coated NKG2D-Fc
[1] = target: T1, human NKG2D-Fc fusion protein (human, UniProt P26718 73-216)
T1 construct: extracellular domain; also called recombinant human NKG2D-Fc; human recombinant NKG2D; not shown: human IgG1 Fc domain
T1 sequence (looked up): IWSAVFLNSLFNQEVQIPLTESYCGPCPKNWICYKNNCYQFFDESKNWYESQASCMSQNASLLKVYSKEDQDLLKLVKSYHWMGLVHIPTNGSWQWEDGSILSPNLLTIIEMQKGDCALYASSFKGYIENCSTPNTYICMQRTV

[2] = target: T2, cynomolgus NKG2D-Fc fusion protein (cynomolgus; human, UniProt P61252 73-216)
T2 construct: extracellular domain; also called cynomolgus recombinant NKG2D-Fc; cynomolgus recombinant NKG2D; not shown: human IgG1 Fc domain
T2 sequence (looked up): T1 sequence (looked up) with D43N, T133I

[3] = target: T3, mouse NKG2D-Fc fusion protein (mouse; human, UniProt O54709 90-232)
T3 construct: extracellular domain; also called mouse recombinant NKG2D-Fc; recombinant mouse NKG2D-Fc; not shown: human IgG1 Fc domain
T3 sequence (looked up): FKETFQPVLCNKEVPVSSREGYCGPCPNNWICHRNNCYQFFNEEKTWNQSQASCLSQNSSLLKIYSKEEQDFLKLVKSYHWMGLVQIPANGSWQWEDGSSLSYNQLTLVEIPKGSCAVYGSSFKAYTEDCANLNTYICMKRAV

Measured: binding result

B1: ADI-29447 (antibody, V domains shown)
VH: QVQLQQWGAGLLKPSETLSLTCAVYGGSFSGYYWSWIRQPPGKGLEWIGEIDHSGSTNYNPSLKSRVTISVDTSKNQFSLKLSSVTAADTAVYYCARARGPWSFDPWGQGTLVTVSS
VL: DIQMTQSPSTLSASVGDRVTITCRASQSISSWLAWYQQKPGKAPKLLIYKASSLESGVPSRFSGSGSGTEFTLTISSLQPDDFATYYCQQYDTFITFGGGTKVEIK
notes: also called F47
binds: all assays above

B2: ADI-29379 (antibody, V domains shown)
VH: QVQLVQSGAEVKKPGASVKVSCKASGYTFTSYYMHWVRQAPGQGLEWMGIINPSGGSTSYAQKFQGRVTMTRDTSTSTVYMELSSLRSEDTAVYYCARGAPNYGDTTHDYYYMDVWGKGTTVTVSS
VL: EIVMTQSPATLSVSPGERATLSCRASQSVSSNLAWYQQKPGQAPRLLIYGASTRATGIPARFSGSGSGTEFTLTISSLQSEDFAVYYCQQYDDWPFTFGGGTKVEIK
notes: also called E79
binds: all assays above

B3: ADI-27744 (antibody, V domains shown)
VH: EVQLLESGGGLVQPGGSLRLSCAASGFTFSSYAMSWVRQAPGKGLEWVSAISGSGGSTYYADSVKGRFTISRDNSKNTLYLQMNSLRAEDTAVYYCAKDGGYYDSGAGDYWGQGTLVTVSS
VL: DIQMTQSPSSVSASVGDRVTITCRASQGIDSWLAWYQQKPGKAPKLLIYAASSLQSGVPSRFSGSGSGTDFTLTISSLQPEDFATYYCQQGVSYPRTFGGGTKVEIK
notes: also called A44
binds: all assays above

B4: ADI-27749 (antibody, V domains shown)
VH: EVQLVESGGGLVKPGGSLRLSCAASGFTFSSYSMNWVRQAPGKGLEWVSSISSSSSYIYYADSVKGRFTISRDNAKNSLYLQMNSLRAEDTAVYYCARGAPMGAAAGWFDPWGQGTLVTVSS
VL: B3 VL with D30S, Y94F
notes: also called A49
binds: all assays above

B5: ADI-29378 (antibody, V domains shown)
VH: QVQLVQSGAEVKKPGASVKVSCKASGYTFTSYYMHWVRQAPGQGLEWMGIINPSGGSTSYAQKFQGRVTMTRDTSTSTVYMELSSLRSEDTAVYYCAREGAGFAYGMDYYYMDVWGKGTTVTVSS
VL: B2 VL with M4L, V13L, N32Y, G50D, T53N, E70D, Q79E, S80P, Y91S, D93N
notes: also called E78
binds: all assays above

B6: ADI-27724 (antibody, V domains shown)
VH: B1 VH
VL: not shown
binds: all assays above
